The subject of this assay is mutant form of α-Gal A expressed in HEK-293 cells. As to the kind of experiment: HEK assay (GLP HEK / Migalastat Amenability Assay): α-Gal A activity in lysates of transiently transfected HEK-293 cells incubated with or without 10 μM migalastat. Format: cell-based, human. The settings on record: for Absolute increase (% WT): 10 μM migalastat versus baseline; for Relative increase: 10 μM migalastat α-Gal A activity relative to baseline; for 10 μM migalastat α-Gal A activity (% WT): 5 days; for 10 μM migalastat α-Gal A activity (% WT) / Baseline α-Gal A activity (% WT): percentage of baseline wild-type α-Gal A activity; for 10 μM migalastat α-Gal A activity (% WT) / Baseline α-Gal A activity (% WT) / Baseline α-Gal A activity / 10 μM migalastat α-Gal A activity: mean ± SEM; for Baseline α-Gal A activity (% WT): absence of migalastat; for Baseline α-Gal A activity / 10 μM migalastat α-Gal A activity: lysates of HEK-293 cells transfected with the mutant form; for Baseline α-Gal A activity: incubated 5 days in the absence of migalastat; for 10 μM migalastat α-Gal A activity: incubated 5 days with 10 μM migalastat. The protocol: Such mutations or variants are also referred to herein as “HEK assay amenable” mutations or variants.
The α-Gal A activity is expressed as the nmoles of free 4-MU released per milligram of protein per hour (nmol/mg/hr).
In Table 7, values for the mean±standard error of the mean (SEM) were calculated. nmol/mg/hr indicates “nmoles of free 4-MU released per mg of protein per hour”. WT indicates “wild-type”. NC indicates “not calculable”. N/A indicates “not applicable”.

B1: A97T (protein)
chain: MQLRNPELHLGCALALRFLALVSWDIPGARALDNGLARTPTMGWLHWERFMCNLDCQEEPDSCISEKLFMEMAELMVSEGWKDAGYEYLCIDDCWMTPQRDSEGRLQADPQRFPHGIRQLANYVHSKGLKLGIYADVGNKTCAGFPGSFGYYDIDAQTFADWGVDLLKFDGCYCDSLENLADGYKHMSLALNRTGRSIVYSCEWPLYMWPFQKPNYTEIRQYCNHWRNFADIDDSWKSIKSILDWTSFNQERIVDVAGPGGWNDPDMLVIGNFGLSWNQQVTQMALWAIMAAPLFMSNDLRHISPQAKALLQDKDVIAINQDPLGKQGYQLRQGDNFEVWERPLSGLAWAVAMINRQEIGGPRSYTIAVASLGKGVACNPACFITQLLPVKRKLGFYEWTSRLRSHINPTGTVLLQLENTMQMSLKDLL
Consider B1, for which the “Absolute increase (% WT)” value is listed as 21.4 % WT, the Relative increase is on record as 1.8, the “10 μM migalastat α-Gal A activity (% WT)” value was determined as 50.9 ± 2.7 % WT and the “Baseline α-Gal A activity (% WT)” value came out at 29.4 ± 2.2 % WT. The “Baseline α-Gal A activity” value was found to be 11157 ± 776 nmol/mg/h and the “10 μM migalastat α-Gal A activity” value was determined as 19875 ± 1502 nmol/mg/h.

B2: P98H (protein)
chain: MQLRNPELHLGCALALRFLALVSWDIPGARALDNGLARTPTMGWLHWERFMCNLDCQEEPDSCISEKLFMEMAELMVSEGWKDAGYEYLCIDDCWMAHQRDSEGRLQADPQRFPHGIRQLANYVHSKGLKLGIYADVGNKTCAGFPGSFGYYDIDAQTFADWGVDLLKFDGCYCDSLENLADGYKHMSLALNRTGRSIVYSCEWPLYMWPFQKPNYTEIRQYCNHWRNFADIDDSWKSIKSILDWTSFNQERIVDVAGPGGWNDPDMLVIGNFGLSWNQQVTQMALWAIMAAPLFMSNDLRHISPQAKALLQDKDVIAINQDPLGKQGYQLRQGDNFEVWERPLSGLAWAVAMINRQEIGGPRSYTIAVASLGKGVACNPACFITQLLPVKRKLGFYEWTSRLRSHINPTGTVLLQLENTMQMSLKDLL
As to B2, the “Absolute increase (% WT)” value stood at 22.5 % WT, the Relative increase turned out to be 1.4, the “10 μM migalastat α-Gal A activity (% WT)” value is recorded as 83.4 ± 4.6 % WT and the “Baseline α-Gal A activity (% WT)” value amounted to 60.8 ± 3.1 % WT. For the same molecule, the “Baseline α-Gal A activity” value turned out to be 21896 ± 1232 nmol/mg/h and the “10 μM migalastat α-Gal A activity” value was 29920 ± 1808 nmol/mg/h.

B3: P98L (protein)
chain: MQLRNPELHLGCALALRFLALVSWDIPGARALDNGLARTPTMGWLHWERFMCNLDCQEEPDSCISEKLFMEMAELMVSEGWKDAGYEYLCIDDCWMALQRDSEGRLQADPQRFPHGIRQLANYVHSKGLKLGIYADVGNKTCAGFPGSFGYYDIDAQTFADWGVDLLKFDGCYCDSLENLADGYKHMSLALNRTGRSIVYSCEWPLYMWPFQKPNYTEIRQYCNHWRNFADIDDSWKSIKSILDWTSFNQERIVDVAGPGGWNDPDMLVIGNFGLSWNQQVTQMALWAIMAAPLFMSNDLRHISPQAKALLQDKDVIAINQDPLGKQGYQLRQGDNFEVWERPLSGLAWAVAMINRQEIGGPRSYTIAVASLGKGVACNPACFITQLLPVKRKLGFYEWTSRLRSHINPTGTVLLQLENTMQMSLKDLL
Regarding B3, the “Absolute increase (% WT)” value is given as 19.6 % WT, the Relative increase came to 1.3, the “10 μM migalastat α-Gal A activity (% WT)” value came to 88.5 ± 6.3 % WT and the “Baseline α-Gal A activity (% WT)” value is listed as 69 ± 5.5 % WT. Also, the “Baseline α-Gal A activity” value was 24223 ± 1555 nmol/mg/h and the “10 μM migalastat α-Gal A activity” value turned out to be 31835 ± 2399 nmol/mg/h.

B4: Q99E (protein)
chain: MQLRNPELHLGCALALRFLALVSWDIPGARALDNGLARTPTMGWLHWERFMCNLDCQEEPDSCISEKLFMEMAELMVSEGWKDAGYEYLCIDDCWMAPERDSEGRLQADPQRFPHGIRQLANYVHSKGLKLGIYADVGNKTCAGFPGSFGYYDIDAQTFADWGVDLLKFDGCYCDSLENLADGYKHMSLALNRTGRSIVYSCEWPLYMWPFQKPNYTEIRQYCNHWRNFADIDDSWKSIKSILDWTSFNQERIVDVAGPGGWNDPDMLVIGNFGLSWNQQVTQMALWAIMAAPLFMSNDLRHISPQAKALLQDKDVIAINQDPLGKQGYQLRQGDNFEVWERPLSGLAWAVAMINRQEIGGPRSYTIAVASLGKGVACNPACFITQLLPVKRKLGFYEWTSRLRSHINPTGTVLLQLENTMQMSLKDLL
With B4, the “Absolute increase (% WT)” value was determined as 25.5 % WT, the Relative increase amounted to 1.4, the “10 μM migalastat α-Gal A activity (% WT)” value worked out at 95.8 ± 7.9 % WT and the “Baseline α-Gal A activity (% WT)” value is 70.3 ± 4.1 % WT. Moreover, the “Baseline α-Gal A activity” value was 25264 ± 1668 nmol/mg/h and the “10 μM migalastat α-Gal A activity” value stood at 34635 ± 3117 nmol/mg/h.

B5: P98R (protein)
chain: MQLRNPELHLGCALALRFLALVSWDIPGARALDNGLARTPTMGWLHWERFMCNLDCQEEPDSCISEKLFMEMAELMVSEGWKDAGYEYLCIDDCWMARQRDSEGRLQADPQRFPHGIRQLANYVHSKGLKLGIYADVGNKTCAGFPGSFGYYDIDAQTFADWGVDLLKFDGCYCDSLENLADGYKHMSLALNRTGRSIVYSCEWPLYMWPFQKPNYTEIRQYCNHWRNFADIDDSWKSIKSILDWTSFNQERIVDVAGPGGWNDPDMLVIGNFGLSWNQQVTQMALWAIMAAPLFMSNDLRHISPQAKALLQDKDVIAINQDPLGKQGYQLRQGDNFEVWERPLSGLAWAVAMINRQEIGGPRSYTIAVASLGKGVACNPACFITQLLPVKRKLGFYEWTSRLRSHINPTGTVLLQLENTMQMSLKDLL
Regarding B5, the “Absolute increase (% WT)” value was 16.4 % WT, the Relative increase worked out at 1.3, the “10 μM migalastat α-Gal A activity (% WT)” value turned out to be 85.8 ± 5.8 % WT and the “Baseline α-Gal A activity (% WT)” value was determined as 69.4 ± 4 % WT. The “Baseline α-Gal A activity” value was determined as 24969 ± 1730 nmol/mg/h and the “10 μM migalastat α-Gal A activity” value stood at 31289 ± 2550 nmol/mg/h.

B6: Q99L (protein)
chain: MQLRNPELHLGCALALRFLALVSWDIPGARALDNGLARTPTMGWLHWERFMCNLDCQEEPDSCISEKLFMEMAELMVSEGWKDAGYEYLCIDDCWMAPLRDSEGRLQADPQRFPHGIRQLANYVHSKGLKLGIYADVGNKTCAGFPGSFGYYDIDAQTFADWGVDLLKFDGCYCDSLENLADGYKHMSLALNRTGRSIVYSCEWPLYMWPFQKPNYTEIRQYCNHWRNFADIDDSWKSIKSILDWTSFNQERIVDVAGPGGWNDPDMLVIGNFGLSWNQQVTQMALWAIMAAPLFMSNDLRHISPQAKALLQDKDVIAINQDPLGKQGYQLRQGDNFEVWERPLSGLAWAVAMINRQEIGGPRSYTIAVASLGKGVACNPACFITQLLPVKRKLGFYEWTSRLRSHINPTGTVLLQLENTMQMSLKDLL
With B6, the “Absolute increase (% WT)” value stood at 27.4 % WT, the Relative increase is listed as 1.4, the “10 μM migalastat α-Gal A activity (% WT)” value is 93.4 ± 7.3 % WT and the “Baseline α-Gal A activity (% WT)” value was 65.9 ± 5.1 % WT. Also, the “Baseline α-Gal A activity” value was 23382 ± 1548 nmol/mg/h and the “10 μM migalastat α-Gal A activity” value worked out at 33479 ± 2746 nmol/mg/h.

Values taken from patent US11833164B2, “Methods of treating Fabry disease in patients having a mutation in the GLA gene” (Amicus Therapeutics, Inc., priority 2019, dated 2023).
